# Data reported in patent US6391584B1, “Expression-cloning method for identifying target proteins for eukaryotic tyrosine kinases and novel target proteins” (New York University Medical Center, priority 1991, dated 2002).
# B1: trpE protein alone (other, UniProt P00895 1-323, looked up)
# chain: MQTQKPTLELLTCEGAYRDNPTALFHQLCGDRPATLLLESADIDSKDDLKSLLLVDSALRITALGDTVTIQALSGNGEALLALLDNALPAGVESEQSPNCRVLRFPPVSPLLDEDARLCSLSVFDAFRLLQNLLNVPKEEREAMFFGGLFSYDLVAGFEDLPQLSAENNCPDFCFYLAETLMVIDHQKKSTRIQASLFAPNEEEKQRLTARLNELRQQLTEAAPPLPVVSVPHMRCECNQSDEEFGGVVRLLQKAIRAGEIFQVVPSRRFSLPCPSPLAAYYVLKKSNPSPYMFFMQDNDFTLFGASPESSLKYDATSRQIEI
# notes: Control for the trpE/GAP SH2 fusion; also called bacterial protein alone
# B2: trpe protein: bacterial trpE protein alone, used as control for the fusion protein (protein)
# chain: B1 chain
# B3: trpE/GAP SH2 fusion protein: bacterially expressed trpE fusion protein containing the GAP SH2 domain (GAP residues 171-448) (protein)
# chain: MQTQKPTLELLTCEGAYRDNPTALFHQLCGDRPATLLLESADIDSKDDLKSLLLVDSALRITALGDTVTIQALSGNGEALLALLDNALPAGVESEQSPNCRVLRFPPVSPLLDEDARLCSLSVFDAFRLLQNLLNVPKEEREAMFFGGLFSYDLVAGFEDLPQLSAENNCPDFCFYLAETLMVIDHQKKSTRIQASLFAPNEEEKQRLTARLNELRQQLTEAAPPLPVVSVPHMRCECNQSDEEFGGVVRLLQKAIRAGEIFQVVPSRRFSLPCPSPLAAYYVLKKSNPSPYMFFMQDNDFTLFGASPESSLKYDATSRQIEIIPLTAPPTNQWYHGKLDRTIAEERLRQAGKSGSYLIRESDRRPGSFVLSFLSQMNVVNHFRIIAMCGDYYIGGRRFSSLSDLIGYYSHVSCLLKGEKLLYPVAPPEPVEDRRRVRAILPYTKVPDTDEISFLKGDMFIVHNELEDGWMWVTNLRTDEQGLIVEDLVEEVGREEDPHEGKIWFHGKISKQEAYNLLMTVGQVCSFLVRPSDNTPGDYSLYFRTNENIQRFKICPTPNNQFMMGGRYYNSIGDIIDHYRKEQIVEGYYLKEPVPMQDQEQ
# How the values were obtained:
# [1] = biological target: trpE/GAP SH2 fusion protein (GAP residues 171-448) (UniProt P00895); experiment: filter binding: 32P-labelled probe on fusion protein spotted on nitrocellulose
# [2] = biological target: tyrosine phosphorylated wild-type EGF receptor, full length (human) (UniProt P00533); experiment: immunoprecipitated autophosphorylated EGFR, anti-PLC-γ blot with 125I-protein A, bands counted
# [3] = biological target: T1, tyrosine phosphorylated EGFR-C (intracellular domain of the EGF receptor, baculovirus expressed) (human, UniProt P00533 669-1210, tyrosine autophosphorylated with MnCl2 and ATP; positions not given); experiment: EGFR-C immunoprecipitated with antibody C, anti-trpE immunoblot
# T1 construct: domain: intracellular domain; Produced in baculovirus-infected SF9 cells; also called EGFR cytoplasmic domain; phosphorylated kinase
# Procedure: In FIG. 12A, EGFR-C (0.5 μg) was immunoprecipitated with antibody C and washed. […] The immunoprecipitates were separated on a 10% SDS-gel, transferred to nitrocellulose and immunoblotting was performed with anti-trpE. […] Phosphorylated or non-phosphorylated EGFR-C (0.5 μg) was then added and allowed to bind as above. After washing, samples were separated on a 10% gel, transferred to nitrocellulose and probed with antibody C. The two samples on the right represent 0.5 μg of phosphorylated and non-phosphorylated kinase loaded directly onto the gel (exposure time: 2 h).
# [4] = biological target: T2, EGFR-C (Homo sapiens, UniProt P00533); experiment: Binding of trpE/GAP SH2 fusion protein to baculovirus expressed EGFR-C (immunoprecipitation / immunoblot); details: phosphorylated vs non-phosphorylated EGFR-C, FIG. 12A
# T2 construct: EGFR-C represents a deletion mutant containing the cytoplasmic domain of the EGF receptor produced by baculovirus-infected SF9 cells; made in house; host or cells: baculovirus-infected SF9 insect cells
# Procedure: FIGS. 12A and 12B are representations of a gel pattern showing binding of EGFR-C to trpE proteins. In FIG. 12A, EGFR-C (0.5 μg) was immunoprecipitated with antibody C and washed. MnCl2 alone or MnCl2 and ATP were then added to facilitate autophosphorylation of TrpE or trpE/GAP SH2 (approximately 2 μg). The immunoprecipitates were separated on a 10% SDS-gel, transferred to nitrocellulose and immunoblotting was performed with anti-trpE. For comparison, about 0.1 μg of trpE or trpE/GAP SH2 lysate was loaded directly on to the gel (right panel of 12A). In FIG. 12B, trpE or trpE/GAP SH2 was immunoprecipitated with anti-trpE antibodies and washed. Phosphorylated or non-phosphorylated EGFR-C (0.5 μg) was then added and allowed to bind as above. After washing, samples were separated on a 10% gel, transferred to nitrocellulose and probed with antibody C. The two samples on the right represent 0.5 μg of phosphorylated and non-phosphorylated kinase loaded directly onto the gel (exposure time: 2 h). The preparation of trpE fusion proteins containing the GAP SH2 domain (GAP residues 171-448, 10 FIG. 9B) has been described by Moran, M. F. et al., Proc. Natl. Acad. Sci. USA 87: 8622-8626 (1990). Bacterial lysates containing trpE/GAP SH2 fusion proteins were prepared by resuspending 1 g of bacteria in 3 ml of 50 mM Tris pH 7.5, 0.5 mm EDTA, 0.1 mm PMSF. […]
molecule,measurement,setting,value
tyrosine phosphorylated C-terminal CNBr fragment of the EGF receptor (EGFR 984/1186) (from UniProt P00533 1008-1210),amount of spotted fusion protein at which binding was still detected,[1],< 5 ng
"PLC-γ (phosphatidylinositol specific phospholipase C-γ), non-phosphorylated, from 3TP1 cell lysate (enzyme)",percent remaining bound after three washes with HNTG,[2],50%
B1,binding result,[3],no binding
B2,binding to EGFR-C,[4],did not bind
B3,binding to EGFR-C,[4],bound only to the tyrosine phosphorylated EGFR-C
